Assay results taken from article PMC7226468, “Insight into the RssB-Mediated Recognition and Delivery of σ^s to the AAA+ Protease, ClpXP” (Biomolecules, 2020).

Tests used:
[1] = biological target: T1, RssB (residues 1–337), untagged (E. coli, UniProt P0AEV1 1-337); experiment: cell-based or functional assay
T1 sequence (looked up): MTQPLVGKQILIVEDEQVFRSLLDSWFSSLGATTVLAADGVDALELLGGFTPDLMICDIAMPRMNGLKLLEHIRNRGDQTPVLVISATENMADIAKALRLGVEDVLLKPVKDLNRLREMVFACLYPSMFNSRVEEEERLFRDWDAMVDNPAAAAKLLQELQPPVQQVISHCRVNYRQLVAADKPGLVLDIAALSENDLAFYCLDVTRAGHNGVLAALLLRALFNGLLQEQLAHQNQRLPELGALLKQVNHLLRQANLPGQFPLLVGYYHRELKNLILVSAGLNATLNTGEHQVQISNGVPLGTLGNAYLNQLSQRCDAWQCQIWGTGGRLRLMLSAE

[2] = biological target: the molecule itself; experiment: cross-linking; 0.005% (v/v) glutaraldehyde, 35 μg of each protein, 20 mM Hepes-KOH pH 7.5, 140 mM NaCl, 10 mM MgCl2, time course; SDS-PAGE and immunodecoration (anti-His, anti-RssB or anti-σS antisera)

B1: His6-tagged zinc binding domain (ZBD) of E. coli ClpX (domain or fragment, UniProt P0A6H1 1-60, looked up)
chain: MTDKRKDGSGKLLYCSFCGKSQHEVRKLIAGPSVYICDECVDLCNDIIREEIKEVAPHRE
notes: Dimer by glutaraldehyde cross-linking; also called ClpXZBD; ecClpXZBD; source: purified ("Pure ecClpXZBD")
B1 was tested. Which “half-life of σS in RssB-mediated turnover by 1.2 µM ClpXP with 2, 5 and 15 µM SspB added (from ~2.5 min without SspB)” value [1] did it give?
The value was ~23 min.

And the “stoichiometry N” value [2]?
The value was 2.

B2: RssBN (residues 1–128), untagged (domain or fragment, E. coli, UniProt P0AEV1 1-128, looked up)
chain: MTQPLVGKQILIVEDEQVFRSLLDSWFSSLGATTVLAADGVDALELLGGFTPDLMICDIAMPRMNGLKLLEHIRNRGDQTPVLVISATENMADIAKALRLGVEDVLLKPVKDLNRLREMVFACLYPSM
notes: RssB, E. coli, N-terminal receiver domain, residues 1-128; also called N-terminal domain of RssB; REC domain; source: Ub-fusion system, purified (IMAC, SEC)
With B2 as the binder, how does the “stoichiometry N” value [2] read?
Its value is 2.

B3: RssBC (residues 131–337), untagged (domain or fragment, E. coli, UniProt P0AEV1 131-337, looked up)
chain: SRVEEEERLFRDWDAMVDNPAAAAKLLQELQPPVQQVISHCRVNYRQLVAADKPGLVLDIAALSENDLAFYCLDVTRAGHNGVLAALLLRALFNGLLQEQLAHQNQRLPELGALLKQVNHLLRQANLPGQFPLLVGYYHRELKNLILVSAGLNATLNTGEHQVQISNGVPLGTLGNAYLNQLSQRCDAWQCQIWGTGGRLRLMLSAE
notes: RssB, E. coli, C-terminal effector domain, residues 131-337; also called C-terminal domain of RssB; effector domain; source: Ub-fusion system, purified (IMAC, SEC)
B3 was tested. Which “stoichiometry N” value [2] did it give?
Its value is 2.
